Measured values taken from the supplement of paper PMC10065799, “High-throughput profiling of sequence recognition by tyrosine kinases and SH2 domains using bacterial peptide display” (eLife, 2023).

target: FGFR1 (UniProt P11362); assay: phosphorylation enrichment, bacterial display (enrichment ratio); higher = better substrate or ligand; peptides without Tyr show the background
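Note: 11-residue human phosphosite peptides and single-mutation variants displayed on the E. coli surface, counted by deep sequencing, each peptide's frequency after selection divided by its frequency in the unselected input library; frequency after pTyr selection over input frequency; kinase dosed for 20-30% of maximal phosphorylation in three min.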

FGFR1, sequence (P11362 whole entry, looked up): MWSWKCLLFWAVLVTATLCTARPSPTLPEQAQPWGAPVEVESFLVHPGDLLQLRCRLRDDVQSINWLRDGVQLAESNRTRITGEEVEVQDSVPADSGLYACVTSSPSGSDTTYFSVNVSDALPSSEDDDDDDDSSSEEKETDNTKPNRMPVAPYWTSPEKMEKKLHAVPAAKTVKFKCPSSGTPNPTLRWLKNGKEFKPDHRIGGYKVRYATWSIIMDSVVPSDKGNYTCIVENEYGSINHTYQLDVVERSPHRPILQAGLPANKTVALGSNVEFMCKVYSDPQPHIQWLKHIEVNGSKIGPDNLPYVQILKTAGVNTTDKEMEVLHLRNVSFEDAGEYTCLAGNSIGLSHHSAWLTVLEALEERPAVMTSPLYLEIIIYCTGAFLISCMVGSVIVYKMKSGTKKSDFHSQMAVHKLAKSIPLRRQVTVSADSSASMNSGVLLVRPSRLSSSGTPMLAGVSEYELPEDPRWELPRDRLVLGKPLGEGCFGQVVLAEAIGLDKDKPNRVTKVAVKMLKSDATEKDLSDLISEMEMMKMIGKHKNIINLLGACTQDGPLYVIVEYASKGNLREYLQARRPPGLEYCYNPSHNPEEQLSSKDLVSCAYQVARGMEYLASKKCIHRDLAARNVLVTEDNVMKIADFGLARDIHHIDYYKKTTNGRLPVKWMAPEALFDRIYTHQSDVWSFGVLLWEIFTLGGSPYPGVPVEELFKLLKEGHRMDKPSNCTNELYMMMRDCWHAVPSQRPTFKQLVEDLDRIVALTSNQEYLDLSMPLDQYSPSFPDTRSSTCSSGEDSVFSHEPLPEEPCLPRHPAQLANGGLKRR

Q: VHNLDYFKETT [FGFR3_Y647_K650E_YF] was tested. Which phosphorylation enrichment did it give?
A: 0.597

Q: For TCFDKYTGNTF [FN1_Y101_YF], which phosphorylation enrichment is on record?
A: 0.508

Q: Which phosphorylation enrichment does the source give for IHTDAYVRAMT [RPE65_Y89_R85H] here?
A: 0.389

Q: With YCRITYDIFPF [INTS13_Y67_M66T] as the sequence, how does the phosphorylation enrichment read?
A: 1.28

Q: LFIGQYSGKKE [L1CAM_Y1229_S1224L] was tested. Which phosphorylation enrichment did it give?
A: 1.02

Q: KVDKECEVRVR [GHR_Y226_Y226C] was tested. Which phosphorylation enrichment did it give?
A: 0.502

Q: With WRRLIYRCQVG [NR2E3_Y81_R76W] as the sequence, how does the phosphorylation enrichment read?
A: 0.487

Q: With IQKWEYVPLGP [FAH_Y244] as the sequence, how does the phosphorylation enrichment read?
A: 1.11

Q: For EWKNNYPRLRE [OPA1_Y582], which phosphorylation enrichment is on record?
A: 0.383

Q: How did the phosphorylation enrichment turn out when RLPNGYGLAFR [DLK1_Y262_S260N_YF] was run?
A: 0.684

Q: For ATARPYSPYII [LRP5_Y1528_R1529S], which phosphorylation enrichment is on record?
A: 0.351

Q: With HKLSFNEFDFE [BTK_Y40_Y40N_YF] as the sequence, how does the phosphorylation enrichment read?
A: 0.795

Q: How did the phosphorylation enrichment turn out when HLDRSYSYSYS [PEAR1_Y890_R885H] was run?
A: 0.558

Q: How did the phosphorylation enrichment turn out when KLVRLYAVVTR [LYN_Y306] was run?
A: 0.483

Q: With HFVDEYDPTIE [KRAS_Y32] as the sequence, how does the phosphorylation enrichment read?
A: 0.884

Q: For ISKQEYDEAGP [ACTC1_Y364], which phosphorylation enrichment is on record?
A: 0.522

Q: For RIFDYYSARKT [STOX1_Y858_A863T], which phosphorylation enrichment is on record?
A: 0.503

Q: With GANSEYIIAEK [ECHS1_Y35_F33S] as the sequence, how does the phosphorylation enrichment read?
A: 0.483

Q: For DRLASYLDKLR [KRT12_Y139_V143L], which phosphorylation enrichment is on record?
A: 0.458

Q: PNRILYGDFWQ [MYH6_Y717_R721W] was tested. Which phosphorylation enrichment did it give?
A: 0.555

Q: How did the phosphorylation enrichment turn out when LEFNEYFRDLN [HPRT1_Y198_D194E_YF] was run?
A: 1.09

Q: IDQDKYAVRFI [FLNA_Y2388] was tested. Which phosphorylation enrichment did it give?
A: 0.425

Q: With RGRSTCYWPRP [GAGE12J_Y9_Y9C] as the sequence, how does the phosphorylation enrichment read?
A: 0.704

Q: For LTTEAYEWEPR [ELMOD3_Y61], which phosphorylation enrichment is on record?
A: 1.08

Q: With ETGNLYIAKVE [CNTN4_Y180] as the sequence, how does the phosphorylation enrichment read?
A: 0.405

Q: QNTVDYYDLYG [PTPN11_Y62_G60V] was tested. Which phosphorylation enrichment did it give?
A: 18.4

Q: How did the phosphorylation enrichment turn out when EAAFVYAISSA [WNT4_Y113] was run?
A: 0.586

Q: HKLSFYEFDFE [BTK_Y40_YF] was tested. Which phosphorylation enrichment did it give?
A: 1.01

Q: How did the phosphorylation enrichment turn out when VFAPDYIAGVS [NOB1_Y366] was run?
A: 0.537

target: EPHB2 (UniProt P29323); assay: as above
Sequence (P29323 whole entry, looked up): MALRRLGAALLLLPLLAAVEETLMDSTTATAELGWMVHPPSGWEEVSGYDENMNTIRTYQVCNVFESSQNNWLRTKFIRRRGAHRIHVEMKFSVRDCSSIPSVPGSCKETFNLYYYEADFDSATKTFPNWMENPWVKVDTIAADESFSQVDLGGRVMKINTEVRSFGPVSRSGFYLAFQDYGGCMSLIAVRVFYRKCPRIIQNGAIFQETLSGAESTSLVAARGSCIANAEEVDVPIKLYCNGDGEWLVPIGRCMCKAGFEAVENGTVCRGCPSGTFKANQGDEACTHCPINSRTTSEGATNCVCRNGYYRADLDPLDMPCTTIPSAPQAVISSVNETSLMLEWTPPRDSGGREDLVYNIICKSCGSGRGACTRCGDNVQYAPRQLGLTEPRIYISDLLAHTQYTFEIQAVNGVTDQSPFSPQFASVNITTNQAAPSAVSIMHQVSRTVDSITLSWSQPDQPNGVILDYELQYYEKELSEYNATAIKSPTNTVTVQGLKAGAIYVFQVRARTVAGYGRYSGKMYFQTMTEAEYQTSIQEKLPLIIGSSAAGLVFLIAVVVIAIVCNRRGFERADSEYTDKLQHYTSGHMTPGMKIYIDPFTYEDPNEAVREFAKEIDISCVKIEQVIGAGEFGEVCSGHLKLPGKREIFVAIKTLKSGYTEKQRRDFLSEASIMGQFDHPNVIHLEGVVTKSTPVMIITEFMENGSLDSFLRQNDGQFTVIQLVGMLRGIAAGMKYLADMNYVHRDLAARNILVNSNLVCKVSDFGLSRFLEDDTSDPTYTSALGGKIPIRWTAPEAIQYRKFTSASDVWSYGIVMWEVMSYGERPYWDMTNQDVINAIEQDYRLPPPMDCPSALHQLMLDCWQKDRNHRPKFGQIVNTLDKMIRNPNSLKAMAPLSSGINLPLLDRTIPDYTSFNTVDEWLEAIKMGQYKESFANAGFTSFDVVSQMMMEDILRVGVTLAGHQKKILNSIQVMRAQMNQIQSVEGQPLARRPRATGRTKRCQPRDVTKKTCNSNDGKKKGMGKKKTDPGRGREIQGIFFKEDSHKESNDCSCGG

Q: Which phosphorylation enrichment does the source give for VHNLDYFKETT [FGFR3_Y647_K650E_YF] here?
A: 0.5

Q: Which phosphorylation enrichment does the source give for TCFDKYTGNTF [FN1_Y101_YF] here?
A: 0.772

Q: Which phosphorylation enrichment does the source give for IHTDAYVRAMT [RPE65_Y89_R85H] here?
A: 0.414

Q: For YCRITYDIFPF [INTS13_Y67_M66T], which phosphorylation enrichment is on record?
A: 3.79

Q: LFIGQYSGKKE [L1CAM_Y1229_S1224L] was tested. Which phosphorylation enrichment did it give?
A: 1.11

Q: How did the phosphorylation enrichment turn out when KVDKECEVRVR [GHR_Y226_Y226C] was run?
A: 0.569

Q: For WRRLIYRCQVG [NR2E3_Y81_R76W], which phosphorylation enrichment is on record?
A: 0.486

Q: With IQKWEYVPLGP [FAH_Y244] as the sequence, how does the phosphorylation enrichment read?
A: 0.521

Q: Which phosphorylation enrichment does the source give for EWKNNYPRLRE [OPA1_Y582] here?
A: 0.442

Q: How did the phosphorylation enrichment turn out when RLPNGYGLAFR [DLK1_Y262_S260N_YF] was run?
A: 0.707

Q: Which phosphorylation enrichment does the source give for ATARPYSPYII [LRP5_Y1528_R1529S] here?
A: 0.192

Q: HKLSFNEFDFE [BTK_Y40_Y40N_YF] was tested. Which phosphorylation enrichment did it give?
A: 0.859

Q: HLDRSYSYSYS [PEAR1_Y890_R885H] was tested. Which phosphorylation enrichment did it give?
A: 0.477

Q: Which phosphorylation enrichment does the source give for KLVRLYAVVTR [LYN_Y306] here?
A: 0.633

Q: Which phosphorylation enrichment does the source give for HFVDEYDPTIE [KRAS_Y32] here?
A: 0.99

Q: Which phosphorylation enrichment does the source give for ISKQEYDEAGP [ACTC1_Y364] here?
A: 0.741

Q: RIFDYYSARKT [STOX1_Y858_A863T] was tested. Which phosphorylation enrichment did it give?
A: 0.439

Q: For GANSEYIIAEK [ECHS1_Y35_F33S], which phosphorylation enrichment is on record?
A: 0.618

Q: For DRLASYLDKLR [KRT12_Y139_V143L], which phosphorylation enrichment is on record?
A: 0.567

Q: How did the phosphorylation enrichment turn out when PNRILYGDFWQ [MYH6_Y717_R721W] was run?
A: 0.939

Q: How did the phosphorylation enrichment turn out when LEFNEYFRDLN [HPRT1_Y198_D194E_YF] was run?
A: 1.15

Q: Which phosphorylation enrichment does the source give for IDQDKYAVRFI [FLNA_Y2388] here?
A: 0.458

Q: Which phosphorylation enrichment does the source give for RGRSTCYWPRP [GAGE12J_Y9_Y9C] here?
A: 0.6

Q: How did the phosphorylation enrichment turn out when LTTEAYEWEPR [ELMOD3_Y61] was run?
A: 1.24

Q: ETGNLYIAKVE [CNTN4_Y180] was tested. Which phosphorylation enrichment did it give?
A: 0.52

Q: How did the phosphorylation enrichment turn out when QNTVDYYDLYG [PTPN11_Y62_G60V] was run?
A: 3.38

Q: For EAAFVYAISSA [WNT4_Y113], which phosphorylation enrichment is on record?
A: 0.59

Q: How did the phosphorylation enrichment turn out when HKLSFYEFDFE [BTK_Y40_YF] was run?
A: 0.786

Q: How did the phosphorylation enrichment turn out when VFAPDYIAGVS [NOB1_Y366] was run?
A: 0.646

target: Fyn (UniProt P06241); assay: as above
Sequence (P06241 whole entry, looked up): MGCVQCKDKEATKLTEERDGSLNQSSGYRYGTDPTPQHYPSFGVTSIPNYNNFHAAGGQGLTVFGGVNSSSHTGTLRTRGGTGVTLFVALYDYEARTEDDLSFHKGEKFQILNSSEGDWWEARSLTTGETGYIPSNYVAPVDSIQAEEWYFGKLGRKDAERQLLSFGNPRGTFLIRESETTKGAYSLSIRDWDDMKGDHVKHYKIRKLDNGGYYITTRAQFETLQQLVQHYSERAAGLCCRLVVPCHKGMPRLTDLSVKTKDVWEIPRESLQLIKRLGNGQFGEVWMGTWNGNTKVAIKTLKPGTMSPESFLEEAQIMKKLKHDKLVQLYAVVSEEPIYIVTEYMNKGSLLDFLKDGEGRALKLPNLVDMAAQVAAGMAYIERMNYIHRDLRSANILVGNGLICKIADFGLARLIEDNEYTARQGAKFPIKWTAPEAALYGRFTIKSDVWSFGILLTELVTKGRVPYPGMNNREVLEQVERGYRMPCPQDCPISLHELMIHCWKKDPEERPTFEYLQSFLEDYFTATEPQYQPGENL

Q: For VHNLDYFKETT [FGFR3_Y647_K650E_YF], which phosphorylation enrichment is on record?
A: 0.437

Q: TCFDKYTGNTF [FN1_Y101_YF] was tested. Which phosphorylation enrichment did it give?
A: 0.563

Q: For IHTDAYVRAMT [RPE65_Y89_R85H], which phosphorylation enrichment is on record?
A: 0.375

Q: For YCRITYDIFPF [INTS13_Y67_M66T], which phosphorylation enrichment is on record?
A: 1.57

Q: With LFIGQYSGKKE [L1CAM_Y1229_S1224L] as the sequence, how does the phosphorylation enrichment read?
A: 1.07

Q: For KVDKECEVRVR [GHR_Y226_Y226C], which phosphorylation enrichment is on record?
A: 0.421

Q: How did the phosphorylation enrichment turn out when WRRLIYRCQVG [NR2E3_Y81_R76W] was run?
A: 0.452

Q: Which phosphorylation enrichment does the source give for IQKWEYVPLGP [FAH_Y244] here?
A: 0.514

Q: EWKNNYPRLRE [OPA1_Y582] was tested. Which phosphorylation enrichment did it give?
A: 0.422

Q: Which phosphorylation enrichment does the source give for RLPNGYGLAFR [DLK1_Y262_S260N_YF] here?
A: 0.649

Q: How did the phosphorylation enrichment turn out when ATARPYSPYII [LRP5_Y1528_R1529S] was run?
A: 0.934

Q: How did the phosphorylation enrichment turn out when HKLSFNEFDFE [BTK_Y40_Y40N_YF] was run?
A: 0.834

Q: How did the phosphorylation enrichment turn out when HLDRSYSYSYS [PEAR1_Y890_R885H] was run?
A: 0.424

Q: With KLVRLYAVVTR [LYN_Y306] as the sequence, how does the phosphorylation enrichment read?
A: 0.402

Q: For HFVDEYDPTIE [KRAS_Y32], which phosphorylation enrichment is on record?
A: 0.605

Q: How did the phosphorylation enrichment turn out when ISKQEYDEAGP [ACTC1_Y364] was run?
A: 0.602

Q: RIFDYYSARKT [STOX1_Y858_A863T] was tested. Which phosphorylation enrichment did it give?
A: 0.402

Q: GANSEYIIAEK [ECHS1_Y35_F33S] was tested. Which phosphorylation enrichment did it give?
A: 0.64

Q: With DRLASYLDKLR [KRT12_Y139_V143L] as the sequence, how does the phosphorylation enrichment read?
A: 0.459

Q: How did the phosphorylation enrichment turn out when PNRILYGDFWQ [MYH6_Y717_R721W] was run?
A: 5.79

Q: With LEFNEYFRDLN [HPRT1_Y198_D194E_YF] as the sequence, how does the phosphorylation enrichment read?
A: 0.992

Q: IDQDKYAVRFI [FLNA_Y2388] was tested. Which phosphorylation enrichment did it give?
A: 0.488

Q: How did the phosphorylation enrichment turn out when RGRSTCYWPRP [GAGE12J_Y9_Y9C] was run?
A: 0.599

Q: With LTTEAYEWEPR [ELMOD3_Y61] as the sequence, how does the phosphorylation enrichment read?
A: 1.1

Q: Which phosphorylation enrichment does the source give for ETGNLYIAKVE [CNTN4_Y180] here?
A: 0.448

Q: How did the phosphorylation enrichment turn out when QNTVDYYDLYG [PTPN11_Y62_G60V] was run?
A: 6.01

Q: EAAFVYAISSA [WNT4_Y113] was tested. Which phosphorylation enrichment did it give?
A: 1.9

Q: HKLSFYEFDFE [BTK_Y40_YF] was tested. Which phosphorylation enrichment did it give?
A: 1.66

Q: With VFAPDYIAGVS [NOB1_Y366] as the sequence, how does the phosphorylation enrichment read?
A: 0.585

system: c-Abl (mouse); assay: as above

Q: How did the phosphorylation enrichment turn out when VHNLDYFKETT [FGFR3_Y647_K650E_YF] was run?
A: 0.598

Q: With TCFDKYTGNTF [FN1_Y101_YF] as the sequence, how does the phosphorylation enrichment read?
A: 0.93

Q: Which phosphorylation enrichment does the source give for IHTDAYVRAMT [RPE65_Y89_R85H] here?
A: 0.474

Q: With YCRITYDIFPF [INTS13_Y67_M66T] as the sequence, how does the phosphorylation enrichment read?
A: 1.18

Q: LFIGQYSGKKE [L1CAM_Y1229_S1224L] was tested. Which phosphorylation enrichment did it give?
A: 1.07

Q: For KVDKECEVRVR [GHR_Y226_Y226C], which phosphorylation enrichment is on record?
A: 0.638

Q: How did the phosphorylation enrichment turn out when WRRLIYRCQVG [NR2E3_Y81_R76W] was run?
A: 0.65

Q: With IQKWEYVPLGP [FAH_Y244] as the sequence, how does the phosphorylation enrichment read?
A: 0.791

Q: With EWKNNYPRLRE [OPA1_Y582] as the sequence, how does the phosphorylation enrichment read?
A: 0.797

Q: RLPNGYGLAFR [DLK1_Y262_S260N_YF] was tested. Which phosphorylation enrichment did it give?
A: 0.694

Q: For ATARPYSPYII [LRP5_Y1528_R1529S], which phosphorylation enrichment is on record?
A: 0.544

Q: How did the phosphorylation enrichment turn out when HKLSFNEFDFE [BTK_Y40_Y40N_YF] was run?
A: 1.02

Q: With HLDRSYSYSYS [PEAR1_Y890_R885H] as the sequence, how does the phosphorylation enrichment read?
A: 0.49

Q: For KLVRLYAVVTR [LYN_Y306], which phosphorylation enrichment is on record?
A: 0.971

Q: For HFVDEYDPTIE [KRAS_Y32], which phosphorylation enrichment is on record?
A: 1.33

Q: With ISKQEYDEAGP [ACTC1_Y364] as the sequence, how does the phosphorylation enrichment read?
A: 0.79

Q: How did the phosphorylation enrichment turn out when RIFDYYSARKT [STOX1_Y858_A863T] was run?
A: 0.259

Q: With GANSEYIIAEK [ECHS1_Y35_F33S] as the sequence, how does the phosphorylation enrichment read?
A: 0.764

Q: With DRLASYLDKLR [KRT12_Y139_V143L] as the sequence, how does the phosphorylation enrichment read?
A: 0.868

Q: PNRILYGDFWQ [MYH6_Y717_R721W] was tested. Which phosphorylation enrichment did it give?
A: 0.778

Q: For LEFNEYFRDLN [HPRT1_Y198_D194E_YF], which phosphorylation enrichment is on record?
A: 0.805

Q: With IDQDKYAVRFI [FLNA_Y2388] as the sequence, how does the phosphorylation enrichment read?
A: 0.566

Q: RGRSTCYWPRP [GAGE12J_Y9_Y9C] was tested. Which phosphorylation enrichment did it give?
A: 0.623

Q: With LTTEAYEWEPR [ELMOD3_Y61] as the sequence, how does the phosphorylation enrichment read?
A: 0.831

Q: Which phosphorylation enrichment does the source give for ETGNLYIAKVE [CNTN4_Y180] here?
A: 0.635

Q: QNTVDYYDLYG [PTPN11_Y62_G60V] was tested. Which phosphorylation enrichment did it give?
A: 1.38

Q: For EAAFVYAISSA [WNT4_Y113], which phosphorylation enrichment is on record?
A: 2.7

Q: How did the phosphorylation enrichment turn out when HKLSFYEFDFE [BTK_Y40_YF] was run?
A: 1.51

Q: VFAPDYIAGVS [NOB1_Y366] was tested. Which phosphorylation enrichment did it give?
A: 0.844
